Results reported in patent US20230383006A1 (ADIENNE S A, published 2023).

Legend:
[1] = biological target: T1, porcine CD26 expressed on minipig T lymphocytes (porcine (minipig), UniProt P22411 1-766); experiment: multiparametric flow cytometry on lymphocytes from minipig peripheral blood, CD3 (FL1-H) against CD26/CDina26 (FL2-H)
T1 construct: whole, on cells; Native CD26 on lymphocytes isolated from minipig peripheral blood; also called minipig CD26; Porcine Antigen as a transmembrane protein expressed on T lymphocytes
T1 sequence (P22411 whole entry): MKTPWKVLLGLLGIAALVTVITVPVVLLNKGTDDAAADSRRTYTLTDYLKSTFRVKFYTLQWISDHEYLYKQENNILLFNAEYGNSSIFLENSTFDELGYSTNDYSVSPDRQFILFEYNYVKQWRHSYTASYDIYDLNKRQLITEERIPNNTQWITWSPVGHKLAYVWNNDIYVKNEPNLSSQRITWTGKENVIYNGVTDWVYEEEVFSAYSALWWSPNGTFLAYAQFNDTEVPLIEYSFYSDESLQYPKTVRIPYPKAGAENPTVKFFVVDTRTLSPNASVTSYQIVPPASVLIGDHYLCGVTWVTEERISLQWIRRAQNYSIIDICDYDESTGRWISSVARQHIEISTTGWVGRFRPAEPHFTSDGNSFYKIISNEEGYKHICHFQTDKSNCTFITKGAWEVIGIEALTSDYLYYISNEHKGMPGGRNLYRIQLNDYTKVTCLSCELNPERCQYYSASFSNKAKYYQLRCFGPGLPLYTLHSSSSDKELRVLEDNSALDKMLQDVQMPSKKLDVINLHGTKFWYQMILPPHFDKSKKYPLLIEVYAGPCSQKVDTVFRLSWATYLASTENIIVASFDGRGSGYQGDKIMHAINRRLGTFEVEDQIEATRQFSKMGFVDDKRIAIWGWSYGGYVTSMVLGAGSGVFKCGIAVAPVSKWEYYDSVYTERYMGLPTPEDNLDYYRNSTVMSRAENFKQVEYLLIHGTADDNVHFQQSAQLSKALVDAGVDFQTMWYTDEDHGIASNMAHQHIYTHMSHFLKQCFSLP

[2] = biological target: Purified recombinant human CD26 (rhDipeptidyl peptidase IV; Creative BioMart; CAT #DPP4-116H) (human, UniProt P27487 29-766); experiment: SPR (Biacore), 25 C, CDina26 captured on anti-IgG2b CM5 chip, human CD26 as analyte at 30-810 nM
Chain of Purified recombinant human CD26 (rhDipeptidyl peptidase IV; Creative BioMart; CAT #DPP4-116H) (P27487 29-766 limits assumed): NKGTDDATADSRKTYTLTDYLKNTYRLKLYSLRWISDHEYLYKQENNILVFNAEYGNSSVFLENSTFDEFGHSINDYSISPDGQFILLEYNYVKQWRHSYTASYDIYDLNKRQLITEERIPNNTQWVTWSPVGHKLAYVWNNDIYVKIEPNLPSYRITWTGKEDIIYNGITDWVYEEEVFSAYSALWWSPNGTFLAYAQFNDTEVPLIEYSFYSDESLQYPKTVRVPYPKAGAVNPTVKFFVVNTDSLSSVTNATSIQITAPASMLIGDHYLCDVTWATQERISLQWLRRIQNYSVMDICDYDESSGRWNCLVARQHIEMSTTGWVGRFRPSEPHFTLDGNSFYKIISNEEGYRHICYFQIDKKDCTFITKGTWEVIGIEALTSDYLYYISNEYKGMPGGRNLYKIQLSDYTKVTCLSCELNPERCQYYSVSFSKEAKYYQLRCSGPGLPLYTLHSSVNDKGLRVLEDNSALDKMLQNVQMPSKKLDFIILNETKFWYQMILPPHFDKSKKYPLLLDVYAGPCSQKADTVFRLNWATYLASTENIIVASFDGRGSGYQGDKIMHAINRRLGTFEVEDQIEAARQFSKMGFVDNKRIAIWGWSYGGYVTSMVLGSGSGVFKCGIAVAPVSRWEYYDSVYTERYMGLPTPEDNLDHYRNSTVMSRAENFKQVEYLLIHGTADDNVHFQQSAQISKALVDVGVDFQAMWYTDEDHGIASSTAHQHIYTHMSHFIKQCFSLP
Description: Surface Plasmon Resonance system (Biacore®) was used to determine the affinity of CDina26 for human CD26 according to standard protocols. Affinity measurements were taken at 25° C., immobilizing on carboxymethyl dextran chip (CM5) 10.000 RU of an anti-IgG2b antibody (GE Healthcare, 22-0648-97 AC). CDina26 was prepared as stock in HBS-EP (0.01M HEPES, pH 7.4, 0.15M NaCl, 3 mM EDTA, 0.005% Surfactant P20) running buffer in a final concentration of 50 μg/ml, and for each experiment 2.000 RU were reversibly immobilized on the chip by injection with a flow of 10 μl/min in a period of 180 seconds.
Purified recombinant human CD26 (rhDipeptidyl peptidase IV; Creative BioMart; CAT #DPP4-116H) was prepared in a stock concentration of 5.8×10^-6 M. CD26 was injected at increasing concentrations of 30×10⁻⁹, 90×10⁻⁹ M, 270×10⁻⁹ M and 810×10⁻⁹ M. The CD26 samples were injected with a flow of 10μl/minute; with HBS-EP buffer used as running buffer. A typical recording included a 3 minutes period of injection of the CD26 followed by a period of 8 minutes of dissociation. The raw binding data was analyzed according to standard methods. CM5 chip with immobilized anti-IgG2b antibody was regenerated by injection of 10 mM Glycine-HCl pH 1.7 with a flow of injection of 20 μl/min and for a period of 60 seconds.

[3] = biological target: T2, Matrix 3 discontinuous CLIPS peptides covering residues 226 to 252 of human CD26 (human, peptides fixed on a CLIPS scaffold through thiol side chains of cysteines); experiment: CLIPS epitope mapping, discontinuous peptides, Matrix 3
T2 construct: A set of peptide constructs from this range; also called protruding loop of CD26
T2 sequence (peptide, as listed by the source): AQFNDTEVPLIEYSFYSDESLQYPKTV
From the text: The epitopes recognized by the CDina26 antibody produced by hybridoma cell line deposited as PD 12002 have been identified by CLIPS™ Epitope Mapping technology. See, e.g., U.S. Pat. Nos. 7,863,239 and 7,972,993, the disclosures of which are herein incorporated by reference in their entirety. Briefly, CLIPS™ technology structurally fixes peptides into defined three-dimensional structures. […] The CLIPS™ reaction takes place between bromo groups of the CLIPS™ scaffold and thiol side chains of cysteines. The reaction is fast and specific under mild conditions (Timmerman et al., J. Mol. Recognit. 2007; 20: 283-29).
CLIPS™ library screening starts with the conversion of the human CD26 target protein into a library of overlapping peptide constructs, using a combinatorial matrix design. On a solid carrier, a matrix of linear peptides is synthesized, which are subsequently shaped into spatially defined CLIPS™ constructs. Constructs representing several parts of a discontinuous epitope in the correct conformation bind the antibody with high affinity, which is detected and quantified. […] Affinity information is used in iterative screens to define the sequence and conformation of epitopes in detail.

[4] = biological target: T3, Porcine Antigen (purchased from Sigma CAT #D 7052) (porcine, UniProt P22411 38-766, limits assumed); experiment: Biacore, CDina26 captured by an immobilized polyclonal anti-mouse Ig antibody, Porcine Ag injected in solution
T3 construct: Bought soluble protein; also called porcine CD26; Porcine Antigen (Ag)
T3 sequence (P22411 38-766 limits assumed): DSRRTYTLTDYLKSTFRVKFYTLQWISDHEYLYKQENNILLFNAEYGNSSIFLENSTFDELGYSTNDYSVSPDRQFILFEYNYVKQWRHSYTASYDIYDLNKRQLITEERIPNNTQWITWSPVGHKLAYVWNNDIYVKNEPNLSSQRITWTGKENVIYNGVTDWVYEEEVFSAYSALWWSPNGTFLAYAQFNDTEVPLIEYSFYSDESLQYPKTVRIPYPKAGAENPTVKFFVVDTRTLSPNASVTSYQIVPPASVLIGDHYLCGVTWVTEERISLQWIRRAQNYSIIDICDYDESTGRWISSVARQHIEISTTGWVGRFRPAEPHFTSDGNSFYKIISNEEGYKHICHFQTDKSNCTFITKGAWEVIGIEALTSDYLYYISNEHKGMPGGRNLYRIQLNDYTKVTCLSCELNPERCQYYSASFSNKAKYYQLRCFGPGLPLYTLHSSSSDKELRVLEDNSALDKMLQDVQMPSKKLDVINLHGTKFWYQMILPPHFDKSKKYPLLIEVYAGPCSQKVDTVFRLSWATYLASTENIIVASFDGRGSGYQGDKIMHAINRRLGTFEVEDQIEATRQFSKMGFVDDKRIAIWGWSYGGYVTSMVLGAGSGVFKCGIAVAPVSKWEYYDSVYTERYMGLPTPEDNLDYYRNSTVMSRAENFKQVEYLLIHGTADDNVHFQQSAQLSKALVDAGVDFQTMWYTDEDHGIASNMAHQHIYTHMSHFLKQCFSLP

[5] = biological target: T4, Human Antigen (purchased from Sigma CAT #D4943) (human, UniProt P27487 29-766, limits assumed); experiment: Biacore T100, CDina26 captured by immobilized polyclonal anti-mouse Ig antibody, human antigen injected at two concentrations
T4 construct: Bought soluble protein injected in solution in Biacore; also called human CD26; Human Antigen (Ag)
T4 sequence (P27487 29-766 limits assumed): as the sequence (P27487 29-766 limits assumed) above

binding result [1]: no binding
Kd [2]: 5.02 nM
koff [2]: 0.000132 s⁻¹
kon [2]: 26300 M⁻¹ s⁻¹
binding result [3]: no binding
binding result [4]: no binding
koff [5]: 2.8e-05 s⁻¹
B1: CDina26 (antibody, mouse IgG2b, kappa, V domains shown)
VH: QVQLQQSGAELVKPGASVKLSCKASGYTFRSYDINWVRQRPEQGLEWIGWIFPGDGSTKYNEKFKGKATLTTDKSSSTAYMQLSRLTSEDSAVYFCARWTVVGPGYFDVWGAGTTVTVSS
VL: QIVLTQSPAIMSASPGEKVTITCSASSSVSYMNWFQQKPGTSPKLWIYSTSNLASGVPARFSGSGSGTSYSLTISRMEAEDAATYYCQQRSSYPNTFGGGTKLEIKR
notes: also called antibodies produced by the PD 12002 hybridoma cell line deposit; murine monoclonal antibody against CD26
